Source: the Immune Epitope Database (IEDB)

How the values were obtained:
HLA-A*11:01 [1] = assay: IEDB peptide-MHC binding, purified MHC/competitive/fluorescence; ≥ and ≤ were set here for values at or beyond the usual limits of such assays
HLA-A*24:02 = assay: as above
HLA-B*07:02 [2] = assay: IEDB peptide-MHC binding, purified MHC/competitive/radioactivity; filed as Kd, often an IC50 or EC50 that approximates it; ≥ and ≤ were set here for values at or beyond the usual limits of such assays
HLA-B*35:01 = assay: as above
HLA-B*51:01 [3] = assay: as above
HLA-B*53:01 = assay: as above
HLA-B*54:01 = assay: as above
HLA-A*01:01 [4] = assay: as above; settings: source organism: Dengue virus 1 Brazil/97-11/1997
HLA-A*26:01 [5] = assay: as above; settings: source organism: Dengue virus 1 Brazil/97-11/1997
HLA-A*30:01 = assay: as above; settings: source organism: Dengue virus 1 Brazil/97-11/1997
HLA-A*30:02 = assay: as above; settings: source organism: Dengue virus 1 Brazil/97-11/1997
HLA-B*15:01 [6] = assay: as above; settings: source organism: Dengue virus 1 Brazil/97-11/1997
HLA-A*02:01 [7] = assay: IEDB peptide-MHC binding, purified MHC/competitive/fluorescence; ≥ and ≤ were set here for values at or beyond the usual limits of such assays; settings: source organism: Zaire ebolavirus
HLA-B*15:17 = assay: IEDB peptide-MHC binding, purified MHC/direct/fluorescence; filed as Kd, often an IC50 or EC50 that approximates it; ≥ and ≤ were set here for values at or beyond the usual limits of such assays; settings: source organism: Mammarenavirus lassaense
HLA-B*57:01 [8] = assay: as above; settings: source organism: Mammarenavirus lassaense
HLA-B*58:01 = assay: as above
HLA-A*02:01 [9] = assay: as above
HLA-A*26:01 [10] = assay: IEDB peptide-MHC binding, purified MHC/competitive/fluorescence; filed as Kd, often an IC50 or EC50 that approximates it; ≥ and ≤ were set here for values at or beyond the usual limits of such assays; settings: source organism: Reston ebolavirus - Reston (1989)
HLA-B*18:01 = assay: as above; settings: source organism: Reston ebolavirus - Reston (1989)
HLA-B*27:03 = assay: as above; settings: source organism: Reston ebolavirus - Reston (1989)
HLA-B*39:01 = assay: as above; settings: source organism: Reston ebolavirus - Reston (1989)
HLA-B*46:01 = assay: as above; settings: source organism: Reston ebolavirus - Reston (1989)
HLA-B*51:01 [11] = assay: as above; settings: source organism: Reston ebolavirus - Reston (1989)
HLA-B*57:01 [12] = assay: as above; settings: source organism: Reston ebolavirus - Reston (1989)
HLA-A*01:01 [13] = assay: IEDB peptide-MHC binding, purified MHC/direct/fluorescence; filed as Kd, often an IC50 or EC50 that approximates it; ≥ and ≤ were set here for values at or beyond the usual limits of such assays
HLA-A*03:01 = assay: as above
HLA-A*11:01 [14] = assay: as above
HLA-A*24:03 = assay: as above
HLA-A*26:01 [15] = assay: as above
HLA-A*31:01 = assay: as above
HLA-A*69:01 = assay: as above
HLA-B*07:02 [16] = assay: as above
HLA-B*08:01 = assay: as above
HLA-B*15:01 [17] = assay: as above
HLA-B*27:05 = assay: as above
HLA-B*40:01 = assay: as above
HLA-B*44:02 = assay: as above
[18] = source organism: Vaccinia virus
[19] = source organism: Mammarenavirus lassaense
[20] = source organism: Mammarenavirus juninense
[21] = source organism: Zaire ebolavirus
[22] = source organism: Vaccinia virus WR
[23] = source organism: Triticum aestivum
[24] = source organism: SARS coronavirus Tor2
[25] = source organism: Dengue virus 3 Martinique/1243/1999
[26] = source organism: Salmonella enterica subsp. enterica serovar Typhi
[27] = source organism: Salmonella enterica
[28] = source organism: Vibrio vulnificus
[29] = source organism: Corynebacterium glutamicum

## EKSSKYYIK
HLA-A*11:01 [1]; [18]
  IC50: ≥ 79000 nM
HLA-A*24:02; [18]
  IC50: ≥ 145000 nM

## FPAGLTYSQL
HLA-B*07:02 [2]; [19]
  Kd: 155 nM
HLA-B*35:01; [19]
  Kd: 115 nM
HLA-B*51:01 [3]; [19]
  Kd: 8280 nM
HLA-B*53:01; [19]
  Kd: 111 nM
HLA-B*54:01; [19]
  Kd: 603 nM

## FPAIFSAEV
HLA-B*07:02 [2]; [19]
  Kd: 65.3 nM
HLA-B*35:01; [19]
  Kd: 16.8 nM
HLA-B*51:01 [3]; [19]
  Kd: 85.6 nM
HLA-B*53:01; [19]
  Kd: 40.4 nM
HLA-B*54:01; [19]
  Kd: 6.94 nM

## FTMAHRKPTY
HLA-A*01:01 [4]
  Kd: 9160 nM
HLA-A*26:01 [5]
  Kd: 476 nM
HLA-A*30:01
  Kd: 2270 nM
HLA-A*30:02
  Kd: 744 nM
HLA-B*15:01 [6]
  Kd: 313 nM
HLA-B*35:01; source organism: Dengue virus 1 Brazil/97-11/1997
  Kd: 698 nM

## HPDMDSLMI
HLA-B*07:02 [2]; [20]
  Kd: 1720 nM
HLA-B*35:01; [20]
  Kd: 2010 nM
HLA-B*51:01 [3]; [20]
  Kd: 2900 nM
HLA-B*53:01; [20]
  Kd: 79.6 nM
HLA-B*54:01; [20]
  Kd: ≥ 23200 nM

## IIHDFVDKT
HLA-A*02:01 [7]
  IC50: 14100 nM
HLA-A*11:01 [1]; [21]
  IC50: ≥ 148000 nM
HLA-A*24:02; [21]
  IC50: ≥ 287000 nM

## KPVSDLYTSM
HLA-B*07:02 [2]; [22]
  Kd: 0.297 nM
HLA-B*35:01; [22]
  Kd: 34.9 nM
HLA-B*51:01 [3]; [22]
  Kd: ≥ 69600 nM
HLA-B*53:01; [22]
  Kd: 56.6 nM
HLA-B*54:01; [22]
  Kd: 10700 nM

## KSFLWTQSL
HLA-B*15:17
  Kd: ≤ 1 nM
HLA-B*57:01 [8]
  Kd: 29 nM
HLA-B*58:01; [19]
  Kd: 42 nM

## LIMEFNSLL
HLA-A*02:01 [9]; source organism: Reston ebolavirus - Reston
  Kd: 5.2 nM
HLA-A*26:01 [10]
  Kd: ≥ 20000 nM
HLA-B*18:01
  Kd: ≥ 20000 nM
HLA-B*27:03
  Kd: ≥ 20000 nM
HLA-B*39:01
  Kd: ≥ 20000 nM
HLA-B*46:01
  Kd: ≥ 20000 nM
HLA-B*51:01 [11]
  Kd: ≥ 20000 nM
HLA-B*57:01 [12]
  Kd: ≥ 20000 nM

## LPAMCNVYI
HLA-B*07:02 [2]; [23]
  Kd: 685 nM
HLA-B*35:01; [23]
  Kd: 1100 nM
HLA-B*51:01 [3]; [23]
  Kd: 272 nM
HLA-B*53:01; [23]
  Kd: 18.2 nM
HLA-B*54:01; [23]
  Kd: 182 nM

## LPESDLDKVY
HLA-B*07:02 [2]; [22]
  Kd: ≥ 69600 nM
HLA-B*35:01; [22]
  Kd: 79 nM
HLA-B*51:01 [3]; [22]
  Kd: ≥ 54100 nM
HLA-B*53:01; [22]
  Kd: 513 nM
HLA-B*54:01; [22]
  Kd: 10600 nM

## LPYPQPQL
HLA-B*07:02 [2]; [23]
  Kd: 109 nM
HLA-B*35:01; [23]
  Kd: 10600 nM
HLA-B*51:01 [3]; [23]
  Kd: 32.3 nM
HLA-B*53:01; [23]
  Kd: 14900 nM
HLA-B*54:01; [23]
  Kd: 1390 nM

## MPNMLRIMA
HLA-B*07:02 [2]; [24]
  Kd: 9.8 nM
HLA-B*35:01; [24]
  Kd: 11.7 nM
HLA-B*51:01 [3]; [24]
  Kd: 393 nM
HLA-B*53:01; [24]
  Kd: 27 nM
HLA-B*54:01; [24]
  Kd: 0.256 nM

## MPVTAASAAQ
HLA-B*35:01; [25]
  Kd: 1590 nM
HLA-B*51:01 [3]; [25]
  Kd: ≥ 20500 nM

## PSVIEEWKK
HLA-A*11:01 [1]; [22]
  IC50: ≥ 107000 nM

## QPLSQVSF
HLA-B*07:02 [2]; [23]
  Kd: 6870 nM
HLA-B*35:01; [23]
  Kd: 15000 nM
HLA-B*51:01 [3]; [23]
  Kd: 12600 nM
HLA-B*53:01; [23]
  Kd: ≥ 37500 nM
HLA-B*54:01; [23]
  Kd: ≥ 87700 nM

## QPYLQLQPFL
HLA-B*07:02 [2]; [23]
  Kd: 632 nM
HLA-B*35:01; [23]
  Kd: 369 nM
HLA-B*51:01 [3]; [23]
  Kd: 150 nM
HLA-B*53:01; [23]
  Kd: ≥ 22000 nM
HLA-B*54:01; [23]
  Kd: ≥ 23400 nM

## QTDDGVRFT
HLA-A*01:01 [13]; [26]
  Kd: 19800 nM
HLA-A*02:01 [9]; [27]
  Kd: ≥ 20000 nM
HLA-A*03:01; [27]
  Kd: ≥ 20000 nM
HLA-A*11:01 [14]; [27]
  Kd: ≥ 20000 nM
HLA-A*24:03; [27]
  Kd: ≥ 20000 nM
HLA-A*26:01 [15]; [27]
  Kd: ≥ 20000 nM
HLA-A*31:01; [27]
  Kd: ≥ 20000 nM
HLA-A*69:01; [26]
  Kd: 70.3 nM
HLA-B*07:02 [16]; [27]
  Kd: ≥ 20000 nM
HLA-B*08:01; [27]
  Kd: ≥ 20000 nM
HLA-B*15:01 [17]; [27]
  Kd: ≥ 20000 nM
HLA-B*27:05; [27]
  Kd: ≥ 20000 nM
HLA-B*40:01; [27]
  Kd: ≥ 20000 nM
HLA-B*44:02; [27]
  Kd: ≥ 20000 nM
HLA-B*58:01; [27]
  Kd: ≥ 20000 nM

## SPEGEETII
HLA-B*07:02 [2]; [22]
  Kd: 11100 nM
HLA-B*35:01; [22]
  Kd: ≥ 40600 nM
HLA-B*51:01 [3]; [22]
  Kd: 15900 nM
HLA-B*53:01; [22]
  Kd: 270 nM
HLA-B*54:01; [22]
  Kd: ≥ 78100 nM

## STDTRHIPQ
HLA-A*01:01 [13]; [28]
  Kd: 4410 nM
HLA-A*02:01 [9]; [28]
  Kd: ≥ 20000 nM
HLA-A*03:01; [28]
  Kd: ≥ 20000 nM
HLA-A*11:01 [14]; [28]
  Kd: ≥ 20000 nM
HLA-A*24:03; [28]
  Kd: ≥ 20000 nM
HLA-A*26:01 [15]; [28]
  Kd: ≥ 20000 nM
HLA-A*31:01; [28]
  Kd: ≥ 20000 nM
HLA-A*69:01; [28]
  Kd: ≥ 20000 nM
HLA-B*07:02 [16]; [28]
  Kd: ≥ 20000 nM
HLA-B*08:01; [28]
  Kd: ≥ 20000 nM
HLA-B*15:01 [17]; [28]
  Kd: ≥ 20000 nM
HLA-B*27:05; [28]
  Kd: ≥ 20000 nM
HLA-B*40:01; [28]
  Kd: ≥ 20000 nM
HLA-B*44:02; [28]
  Kd: ≥ 20000 nM
HLA-B*58:01; [28]
  Kd: ≥ 20000 nM

## TNTTTEDHK
HLA-A*11:01 [1]; [21]
  IC50: ≥ 110000 nM

## TTAAGPPKA
HLA-A*02:01 [7]
  IC50: 11700 nM
HLA-A*11:01 [1]; [21]
  IC50: 40600 nM

## VLPVPGASV
HLA-A*01:01 [13]; [29]
  Kd: ≥ 20000 nM
HLA-A*02:01 [9]; [29]
  Kd: 63.7 nM
HLA-A*03:01; [29]
  Kd: ≥ 20000 nM
HLA-A*11:01 [14]; [29]
  Kd: ≥ 20000 nM
HLA-A*24:03; [29]
  Kd: ≥ 20000 nM
HLA-A*26:01 [15]; [29]
  Kd: ≥ 20000 nM
HLA-A*31:01; [29]
  Kd: ≥ 20000 nM
HLA-A*69:01; [29]
  Kd: ≥ 20000 nM
HLA-B*07:02 [16]; [29]
  Kd: 10300 nM
HLA-B*08:01; [29]
  Kd: ≥ 20000 nM
HLA-B*15:01 [17]; [29]
  Kd: 3810 nM
HLA-B*27:05; [29]
  Kd: ≥ 20000 nM
HLA-B*40:01; [29]
  Kd: ≥ 20000 nM
HLA-B*58:01; [29]
  Kd: ≥ 20000 nM

## YPDLNFDNTY
HLA-B*07:02 [2]; [22]
  Kd: ≥ 69600 nM
HLA-B*35:01; [22]
  Kd: 18.4 nM
HLA-B*51:01 [3]; [22]
  Kd: ≥ 69600 nM
HLA-B*53:01; [22]
  Kd: 22.2 nM
HLA-B*54:01; [22]
  Kd: 1750 nM

## YPSMFTLRHI
HLA-B*07:02 [2]; [22]
  Kd: 15.5 nM
HLA-B*35:01; [22]
  Kd: 446 nM
HLA-B*51:01 [3]; [22]
  Kd: 2.58 nM
HLA-B*53:01; [22]
  Kd: 0.943 nM
HLA-B*54:01; [22]
  Kd: 20.8 nM
